Laboratory results published in the nanobody polyreactivity screen of Harvey et al. (2022).

Assay: yeast display, Sf9 membrane polyspecificity reagent, FACS + sequencing; frameworks hold sequencing errors
Summary of the method: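 Nanobodies from a synthetic yeast display library (Saccharomyces cerevisiae BJ5465), induced 36–48 hours with galactose, were stained 1 hour at 4 °C with 10% biotinylated, detergent-solubilized Sf9 membrane reagent, enriched on streptavidin microbeads, then FACS-sorted. Anti-HA (expression) and streptavidin (reagent binding) fluorescence set low and high (top ~1%) gates. Polyreactivity labels come from the gate of origin. Genes were colony-PCR amplified, MiSeq 2 × 250 sequenced and filtered by CDR length.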

Sequence	polyreactivity (PSR sort gate)
QVQLVESGGGIVQAGGSLRLSCAASGFTFIRYAMLWYRQAPGIERELVAAITSSGGSTYSADSVKGRFTISRDNAKNTVYLQKNSLKPEDTAVYYCATVYSGPVRAIGYDYWGQGTQVTVSS	high polyreactivity
QVQLVESGGGLVQAGGSLRLSCAASGRIIVKYAMRSYRQAPGKERELVAAITNSGGRTYYAACVKGRFTISRDNAKNTVYFQMNSLKPEDTAVYYCAALFHASTRQMDYWGQGTQVTVSS	high polyreactivity
QVQLVESGGGLVQAGGSLRLSCAASGSTFTPNDMGWYRQAPGKERELVAAINSGGGRTYYADSVKGRFTISRDNAKNTVYLQMNSLKPEDTAVYYCAKRLYISGYGYGYWGQGTQVTVSS	high polyreactivity
QVQLVESGGGLVQAGGSLRLSCAASGSTFTYNAMGWYRQAPGKERELVAAISSDGRTYYADSVKGRFTISRDNAKNTVYLQMNSLKPEDTAVYYCAAYFSGLTYGYYVAGYDYWGQGTQVTVSS	low polyreactivity
QVQLVDSGGGLVHAGGSLRLSCAASGSTLIGNAMGWYRQAPWKERELVARISLRGGRTYYADSVKGRFTISRDNAKHTVYLQMNSLKPEDTAVYYCNRGGFSRYYYWGQGTQVTVSS	low polyreactivity
QVQLVESGRGFVQAGGSLRLSCADSGSTFRYYAMGWYRQAPGKERELVAAISWSGGSTYYADSVKGRFTISRDNAKNTVYLQMNSLKPEDTAVYYCAAEVYLVGSRWGPRYGDYWGQGTQVTVSS	high polyreactivity
QVQLVESGGGLVQAGGSLRLSCAASGFIFSVNAMGWYRQAPGKERELVAAISKRGGRTYYADSVKGRFTISRDNAKNTVYLQMNSLKPEDTAVYYCAADQPTLAYPGGYSAGMDYWGQGTQVTVSS	high polyreactivity
QVQHEESGGGLVQAGGSLRLSCAASGITINFYDMGRYRQARGKERELGAAITASGGGSTYYADSVKGRFTISRDNAKNTVYLQMNSLKPEYTAVYYCNADSTGSFYTFDYWGQGTQVTVSS	low polyreactivity
QVQLVESGGGLVQAGGSLRLSCAASGITFRYYAMGWYRQAPGKERELVAVITYSGSRTYYADSVKGRFTISRDNAKNTVYLQMNSLKPEDTAVYYGATKGAKRVIGETAYDYWGQGTQVTVSS	high polyreactivity
QVQLVESGGGLVQAGGSLRLSCAASGFTFGGYAMGWYRQAPGKERELVAAIDSSGGRTYYADSVKGRFTISRDNAKNTVYLQMNSLKPEDTAVYYCNAGNSGWWRYDYDYWGQGTQVTVSS	high polyreactivity
QVQLVESGGGLVQAGGSLRLSCAASGSIFDVNAMGWYRQAPGKERELVAAITWSGGITYYADSVKGRFTISRDNAKNTVYLQMNSLKPEDTAVYYCNVYVTAGEEDEYWGQGTQVTVSS	low polyreactivity
QVQLVESGGGLVHAGGSLRLSCAASGRTFDIYAMGWYRQAPGKERELVAAISSGGSTYYADSVKGRFRISRDNAKKTVYLQKNSLKPEDTAVYYCAVRWYDQVSRRGIGYYWGQGTQVTVSS	low polyreactivity
QVQLVESGGGLVQAGGSLRLSCAASGFTFGDYAMGWYRQAPGKERELVAVISSGGSTYYADSVKGRFTISRDNAKNTVYLQMNSLKPEDTAVYYCAKYVFRVWYHVFEVDYWGQGTQVTVSS	low polyreactivity
QVHLVESGGGLVQAGGSLRLSCAASGSIFNENAMGWYRQAPGKERELVATISRRGGSTYYADSVKGRFTISRDNAKNTVYLQMNSLKPEDTAVYYCARDIFWVVYWGQGTQVTVSS	high polyreactivity
QVQLVESGGGLVQAGGSLRLSCAASGFTFGYYAMGWYRQAPGKERELVAAIRSSGGSTYYADSVKGRFTISRDNAKNTVYLQMNSLKPEDTAVYYCAVLYGYRSSSRYGYDSWGQGTQVTVSS	high polyreactivity
QVQLVESGGRLVQAGGSLRLRCAASGSIFGGYTMGRSRQAPGKERELVAAISRRGGNTYYADSVKGRFTISRDNAKNTVYLQMNSLKPEDTAVYYGAVRWPSARIPVKLDYWGQGTQVSVSS	high polyreactivity

Sequence	polyreactivity (PSR sort gate)
QVQLVESGGGLVQAGGSLRLSCAASGFSFSRNAKGWYRQAPGKERELVAAISIRGGSTYYADSVKGRFTISRDNAKNTVYLQMNILKPEDTAVYYCNAYDLYRQRNGYGYWGQGTQVTVSS	high polyreactivity
QVQLVESGGGLVQAGGSLRLSCAASGIILYTYAMGWYRQAPGKEREFVAGIRWSGSSTYYADSVKGRFTISRDNAKNTVYLQMNSLKPEDTAVYYCATGQPYGPLYSLGYGYWGQGTQVTVSS	high polyreactivity
QVQLVESGGGLVQAGGILRLSCAASGNIFAFYAMGWYRQAPVKERELVAAITDGTTTNYADSVKGRFTISRDNAKNTVYLQMNSLIPEDTAVYYSAADTGWWPWLERFRHYYYWGQGTQVTVSS	low polyreactivity
QVQLVESGGGLVQAGGSLRLSCAASGITFYRNAMGWYRQAPGKEMELVAAITWNGGRTYYADSVKGRFTISRDNAKNTVYLQMNSLKPEDTAVYYCAADSGTRNLASYRYYYWGQGTQVTVSS	low polyreactivity
QDQLVESGGGLVQAGGSLRLSCAASGITFYTYAMGWSRQAPGKERELVAAISRSGGSTYYADSVKGRITISRDNAKYTVYLQMNSLKPEDSAVYYCAAVYRGRDMDYWGLGTQVTVSS	high polyreactivity
QVQLVESGVGLVQAGGSLRLSCAASGITFIPYAMGWYRQAPGKERELVASISDGGGTNYADSVKGLFTISRDNAKNTVYLQKNSLNPEDTAVYYCATYASTYSYYGGDYWGQGTPVTVSS	low polyreactivity
QVQLVESGGGLVQAGGSLRLSCAAAGSTFSSYAMVWYRQAPGKERELVAAISTSGGRTYYADSVKGRFTISRDNAKNAVFLQMNSLKPEDTAVYYCAKKGICYVRYYYWGQGTLVTVSS	high polyreactivity
QVQLVESGGGLVQAGGTLRLSCAASGRIFVYNAMGWYRQAPGKERELVATITSGGSTYYSDSLKGRFTISRDNAKNTLYFQMNSLKPEDTAVYYCAARRWYVHYFAYGYWGQGTQVTVSS	low polyreactivity
QVQLVESGGCLVQAGGSLRLSCAASGSTFWWNTMGWYRQAPGKERELVADIRTSGGGTYYADSVKGRFTISRDNAKNTVYLQMNSLKPEDTAVYYCNADPKWEMGSWGQGTQVTVSS	low polyreactivity
QVQLVESGGGLVQAGASLRLSCAASGSTFKYYTMGWYRQAPGKERALVAAISFSGARTYYADSVKGRFTISRDNAKNTVYLQMNSLKPEDTAVYYCAKASSYSRRYEYWGQGTQVTVSS	high polyreactivity
QVQLVESRGGLVQAGGSLRLSCADSGRIFWYYDMGCYRQAPWKDRELVAAITSGGRTYYADYVKGRFTISRDNAKNTVYLQMNSLKPEDTAVYYCAAEGFYTSGSPYSGGLDYWGQGTQVTVSS	low polyreactivity
QDQLVESAGGLVQAGGSLRLSCAASGRTFVTNTMGWSRQAPGKERELVAAISSRGGTTYYADSVKGRFTISRDNAKNTVYLQMNSLKPEDTAVYYCNTGTRAIQRDGFEYWGQGTQVTVSS	low polyreactivity
QVQLVESGGGLVQAGGSLRLSCAASGSTFLKYAMGWYKHAPWKERELVAAITYRGGTTYYADSVKGRFTISRDNAKNSVYFQMNSLKPVDTAVYYCNARRDYDMDWGQGTLVTVSS	high polyreactivity
QVQLVESGGGLLQAGGSLRLSCAASGFIFADYMGWNRQAPGKERELVASISSTGSSTYADSVKGRFTISRDNPKNTVYLQMNSLKPEDTAVSYCAATGVWYSWYEYASEYDYWGLGTQVTVSS	high polyreactivity
QVQLVESGGGLVQAGGSLRLSSAASGSTFGPYAMGWYRQAPGKERELVAAISRRGTSTYYADSVKGRFTISRDNAKNTVYLQMNSLKPEDTAVYYCNAVTSSFFNRDSDYWGQGNQVTVSS	high polyreactivity
